The target of series [1] is catalytically inactive H97A mutant of mouse endonuclease G lacking the N-terminal mitochondrial localization sequence (mouse). Nature of the series: crystal structure.
Series [2] deals with T1, i-mEndoG H97A (catalytically inactive mouse endonuclease G) (mouse, UniProt O08600 42-294, H138A).
T1 sequence: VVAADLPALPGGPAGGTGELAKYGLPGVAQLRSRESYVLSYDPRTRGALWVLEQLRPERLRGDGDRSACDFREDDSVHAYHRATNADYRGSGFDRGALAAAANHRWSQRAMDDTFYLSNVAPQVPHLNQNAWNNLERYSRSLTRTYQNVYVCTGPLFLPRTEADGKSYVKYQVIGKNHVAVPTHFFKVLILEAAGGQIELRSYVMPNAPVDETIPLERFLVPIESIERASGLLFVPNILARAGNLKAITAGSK
Description: X-ray crystallography.

The stoichiometry N is a count of units in the complex or per binding partner.

Consider “catalytically inactive H97A mutant of mouse endonuclease G lacking the N-terminal mitochondrial localization sequence (enzyme)”, for which the stoichiometry N in series [1] came to 2.

B1: decanucleotide d(CCGGCGCCGG) (dsDNA)
DNA 1: CCGGCGCCGG
DNA 2: CCGGCGCCGG
In the case of B1, the binding result in series [2] is “binds”.

(Values after publication PMC7144941.)
